Data as given in PMC8809517, “Cofactor-independent RNA editing by a synthetic S-type PPR protein”.

T1: GFP-9S library array, motif 4 ND N98R (synthetic construct, N98R)
T1 chain: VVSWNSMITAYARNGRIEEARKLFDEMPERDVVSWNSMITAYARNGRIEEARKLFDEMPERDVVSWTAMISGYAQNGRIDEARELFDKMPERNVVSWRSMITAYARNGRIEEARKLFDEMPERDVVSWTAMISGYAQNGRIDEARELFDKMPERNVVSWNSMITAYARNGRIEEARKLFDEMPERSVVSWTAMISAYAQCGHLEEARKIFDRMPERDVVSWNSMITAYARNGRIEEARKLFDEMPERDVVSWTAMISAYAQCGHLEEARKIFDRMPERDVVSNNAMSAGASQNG

T2: GFP-9S library array, motif 4 ND N98F;D124Q (synthetic construct, N98F;D124Q)
T2 chain: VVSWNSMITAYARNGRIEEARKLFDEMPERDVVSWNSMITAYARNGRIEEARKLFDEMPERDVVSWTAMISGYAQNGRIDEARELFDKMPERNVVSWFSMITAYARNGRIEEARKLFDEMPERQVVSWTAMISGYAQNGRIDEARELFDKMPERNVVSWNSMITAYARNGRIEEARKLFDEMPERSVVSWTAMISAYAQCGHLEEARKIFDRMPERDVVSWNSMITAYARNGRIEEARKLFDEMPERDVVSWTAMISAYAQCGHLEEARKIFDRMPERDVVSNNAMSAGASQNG

T3: GFP-9S library array, motif 4 ND N98T;D124W (synthetic construct, N98T;D124W)
T3 chain: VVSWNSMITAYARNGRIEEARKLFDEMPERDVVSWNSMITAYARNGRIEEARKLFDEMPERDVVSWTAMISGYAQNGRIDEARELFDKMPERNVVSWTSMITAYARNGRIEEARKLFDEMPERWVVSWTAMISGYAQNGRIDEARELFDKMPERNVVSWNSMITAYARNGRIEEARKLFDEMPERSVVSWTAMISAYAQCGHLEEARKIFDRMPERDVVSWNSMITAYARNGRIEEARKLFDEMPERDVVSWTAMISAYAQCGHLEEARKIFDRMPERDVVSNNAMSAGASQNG

T4: GFP-9S library array, motif 4 ND N98H;D124G (synthetic construct, N98H;D124G)
T4 chain: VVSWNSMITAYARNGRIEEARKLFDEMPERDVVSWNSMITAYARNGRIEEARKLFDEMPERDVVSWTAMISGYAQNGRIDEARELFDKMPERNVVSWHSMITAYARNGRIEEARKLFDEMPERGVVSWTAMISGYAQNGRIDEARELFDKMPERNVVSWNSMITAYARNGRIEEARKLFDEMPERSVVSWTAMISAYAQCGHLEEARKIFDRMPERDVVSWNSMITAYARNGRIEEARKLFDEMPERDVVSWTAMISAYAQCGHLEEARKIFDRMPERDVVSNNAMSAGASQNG

T5: GFP-9S library array, motif 4 ND N98C;D124A (synthetic construct, N98C;D124A)
T5 chain: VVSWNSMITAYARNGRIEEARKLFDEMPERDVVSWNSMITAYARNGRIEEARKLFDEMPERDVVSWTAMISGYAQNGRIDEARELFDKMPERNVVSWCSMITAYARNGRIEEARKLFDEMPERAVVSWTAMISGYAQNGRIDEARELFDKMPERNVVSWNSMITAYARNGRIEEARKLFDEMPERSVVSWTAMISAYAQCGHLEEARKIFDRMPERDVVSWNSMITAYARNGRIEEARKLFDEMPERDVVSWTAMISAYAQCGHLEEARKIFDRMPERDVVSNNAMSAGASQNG


Assays:
Assay in all cases: high-throughput RNA pulldown from lysate on Ni-NTA beads; HRP: 50 mM Tris pH 8, 150 mM NaCl, 1 mM beta-mercaptoethanol, 50 ug/ml BSA, 3 ug/ml yeast RNA, 0.5% heparin; ITC and FP: Tris pH 8, 200 mM KCl, 5% glycerol; MST: 50 mM Tris pH 8, 200 mM NaCl, 1 mM DTT, BSA, heparin, 0.05% Tween 20
Settings in all cases: tags: N-terminal His-eGFP
[1] = target: T1, GFP-9S library array, motif 4 ND N98R
[2] = target: T2, GFP-9S library array, motif 4 ND …
[3] = target: T3, GFP-9S library array, motif 4 ND …
[4] = target: T4, GFP-9S library array, motif 4 ND …
[5] = target: T5, GFP-9S library array, motif 4 ND …

Binder | Kd ([1]; label: 5' Cy5) | Kd ([2]; label: 5' Cy5) | Kd ([3]; label: 5' Cy5) | Kd ([4]; label: 5' Cy5) | Kd ([5]; label: 5' Cy5) | Kd ([1]; label: 5' IRDye 800CW) | Kd ([2]; label: 5' IRDye 800CW) | Kd ([3]; label: 5' IRDye 800CW) | Kd ([4]; label: 5' IRDye 800CW) | Kd ([5]; label: 5' IRDye 800CW)
AUUAGACGUGA (ssRNA) [Cy5-rpoA-G] | 253 nM | 143 nM | 71.6 nM | 37.1 nM | 92.3 nM | – | – | – | – | –
AUUACACGUGA (ssRNA) [Cy5-rpoA] | 207 nM | 158 nM | 81.5 nM | 101 nM | 114 nM | – | – | – | – | –
AUUAUACGUGA (ssRNA) [IR-rpoA-U] | – | – | – | – | – | 428 nM | 466 nM | 150 nM | 38.7 nM | 159 nM
AUUAAACGUGA (ssRNA) [IR-rpoA-A] | – | – | – | – | – | 645 nM | 419 nM | 125 nM | 61.3 nM | 98.2 nM
